Target: D-dimer
Assay: detection of D-dimer; format not described

“mouse monoclonal antibody AB424 directed to GGEL (Abcam, catalog number AB424)” showed a titer of 0.6 µg/mL.

Reference: patent publication US20190169313A1
